Experimental data published in the supplement of paper PMC12764529.
± gives the half width of the 95% confidence interval.

Tests used:
[1] = folding stability dG unfold (combined trypsin and chymotrypsin); higher = more stable
How it was run: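 Designed mini-proteins (under 80 residues, no cysteine) in a PA-tagged cDNA display construct were digested with trypsin and chymotrypsin. Each protease was used at 11 concentrations (threefold dilutions) plus a no-protease condition, followed by sequencing. K50 was inferred by Bayesian fitting of sequencing counts, and unfolding free energy was derived against a sequence-predicted unfolded-state K50 and a shared folded-state K50, per protease or combined. Only designs with AlphaFold2 dimer inter-PAE above 15 were kept.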

[2] = folding stability dG unfold from trypsin proteolysis; higher = more stable
Procedure: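 Folding stability of de novo designed mini-proteins (<80 aa, no Cys; designed by TrROS, TrMRF, ProteinMPNN and the joint model) was measured by cDNA display proteolysis with trypsin and chymotrypsin. Each protease was used at 11 concentrations in a threefold dilution series plus a no-protease condition. K50 was inferred by Bayesian fitting of sequencing counts, and dG unfold was derived against a sequence-predicted unfolded-state K50 (Tsuboyama et al. method). Sequences shown include variable-length N-terminal GS-type padding (SAGGSAGG...) inside a display construct carrying a PA tag. Rows were kept only if the AF2 dimer inter-PAE was >15, to exclude likely homo-oligomers.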

Sequence | folding stability dG unfold [1] | folding stability dG unfold [2]
SAGGSAGGSMVYVVKVEIPETGEEYEFLNPEDKETVEREVRELFPDPEVKAEIEEIEVEPELLSAGGSAGGS [r12_92_TrMRF] | < -1 kcal/mol | -0.175 ± 0.15 kcal/mol
SAGGSAGGSREIKIDDFERHNGYYYITVEIKDPNNGKKRPLEIPYPPNQPNADRFAKDIADELSAGGSAGGS [r12_415_TrROS] | < -1 kcal/mol | -0.751 ± 0.43 kcal/mol
SAGGSAGGSSMPLTVEELLASVGPDKTATVLVPPGTSIPANITPLGTEPEGGWRTFAIPASLVSAGGSAGGS [r12_356_JUSTAS] | -0.971 ± 0.25 kcal/mol | -0.137 ± 0.12 kcal/mol
SAGGSAGGSSMPVKVTRTPVPSSAPPSTEFLETVTYPDGTVTTYRFRRDDGSVTSVRVSTSPASAGGSAGGS [r12_1049_JUSTAS] | < -1 kcal/mol | -0.535 ± 0.71 kcal/mol
SAGGSAGGSSPPVVTVEKYSEEPSPGVLRAVIRHPDGKEIVVTFEDLSPEEAKARAEEVAKLGSAGGSAGGS [r20_181_JUSTAS] | < -1 kcal/mol | 0.00637 ± 0.068 kcal/mol
SAGGSAKLEINIIIPGMPPERAKRKARNIAAELRKQGLPKENIKDVDIKVIVMPWRRDPDNKWKPMSAGGSA [r15_684_TrROS] | -0.0462 ± 0.12 kcal/mol | 0.506 ± 0.079 kcal/mol
SAGGSAMEVKIIPGSKEAIINDPENGKPIPATIIEIEPIEPDKNLFKAKVKIPSNGGWKEVLVDLGSAGGSA [r15_209_TrMRF] | < -1 kcal/mol | -1.23 ± 0.39 kcal/mol
SAGGSAMKTLTATFSDGRSVTVEPENRTVTVSTPESSISTIPVPPDVPEVTITTPSGVTITLTVDTSAGGSA [r2_385_JUSTAS] | -0.107 ± 0.12 kcal/mol | 0.287 ± 0.083 kcal/mol
SAGGSAMPPEWQREVVLTPVEIDIPEPPEVEVVEYDPSTGTITISVPKSPLTLTYDALTGTVHTIGSAGGSA [r15_452_JUSTAS] | -0.873 ± 0.47 kcal/mol | -0.488 ± 0.61 kcal/mol
SAGGSAPVTPDELVERVMQYIQGQNGMPPGDTPEQMRDNGMPIKIPITVEDPDGEPIAEVEIEFPMSAGGSA [r15_391_TrROS] | -0.0929 ± 0.24 kcal/mol | 0.637 ± 0.054 kcal/mol
SAGGSASLDIVEELIEEEIKDSKGTKIKILKPIIYYPGKGLVLSNVTVYKPDGTKISTEKKIEPVGSAGGSA [r15_967_JUSTAS] | < -1 kcal/mol | -0.635 ± 0.25 kcal/mol
SAGGSDLITTEETFVGPGGEITLRTTTVDPKTGKTTTTTTTIPVIKGPPSDPAKIEAELKKRGIPLSAGGSA [r2_304_JUSTAS] | -0.799 ± 0.29 kcal/mol | -0.186 ± 0.12 kcal/mol
SAGGSEKLLEEIKEKEFNIPPFIDPKTGKEYPGAKVKVKEAKKIKDTKKIKLIVETPEGKHEFILGSAGGSA [r2_314_TrMRF] | < -1 kcal/mol | 0.324 ± 0.22 kcal/mol
SAGGSETITIEIEINGAKIKLTFTKNEDGTLTVTAEITLPNGKKLRVTMEFDKKTKEWKITSIEPVSAGGSA [r2_402_TrROS_Hall] | > 6 kcal/mol | 4.37 ± 0.39 kcal/mol
SAGGSGLRVGDVVEAEGVVVPDPETRLRRAVFRFPDFVVVEVVEVPEDVAPDEEIPFPVRIDAIVPSAGGSA [r2_113_TrMRF] | -0.645 ± 0.17 kcal/mol | -0.512 ± 0.19 kcal/mol
SAGGSIIIRGPSPDQAEEAARAFAKNFREQFPENPNMEIPVKVEYEDPENGQRQEYEAEIKIPYPDSAGGSA [r2_393_TrROS] | < -1 kcal/mol | 0.0648 ± 0.16 kcal/mol
SAGGSMVTETLSVEETVEPLPDGLVRVPVRTEIRVTRKDPTTGKWTTELRTEEVVLVVPASGLEAASAGGSA [r2_184_JUSTAS] | 0.195 ± 0.053 kcal/mol | 0.804 ± 0.02 kcal/mol
SAGGSPIYVRIEWEPPGNGKEREKEIPIKNVDSPDQLVDEAKEEAMKDGGPIKDIEVYDPDDGRPFPLSAGG [r13_771_TrROS] | -0.192 ± 0.53 kcal/mol | 0.598 ± 0.11 kcal/mol

Sequence | folding stability dG unfold [1] | folding stability dG unfold [2]
SAGGSQEFKFEILVPFDSPEEAKEEAEEIAKILQDHGLDVKVKVERDPNGAVKVPPTIRVDPEDGRPLSAGG [r13_697_TrROS] | -0.236 ± 0.31 kcal/mol | 0.397 ± 0.1 kcal/mol
SAGGSSIEEIKEALKKGYNIKITPTTGTSTLVPVEELIKDPNITPETSLSDLGIKEITLIPPKNGKLVSAGG [r13_587_JUSTAS] | -0.257 ± 0.25 kcal/mol | 0.0152 ± 0.075 kcal/mol
SAGGSSIPRALLEAMPPDAELEFEDPSSNVRIKVTRLGPDRLEITTTVYPPGPDTPVSSETTTDPLASAGGS [r16_163_JUSTAS] | -0.124 ± 0.28 kcal/mol | 0.371 ± 0.11 kcal/mol
SAGGSTTITVPEEELEKKTGIPLGTPPEEVARKLDPVAKVTVTAVSSEKGPNGEPKRTVTFEVTPPQLSAGG [r13_723_JUSTAS] | < -1 kcal/mol | -0.236 ± 0.14 kcal/mol
SAGGWRMEIEFPGINPEELRKAIAEAPGNKDVDVDVERIPKDGSVKIEMHGNNPADRKRIQKAVKKAFSAGG [r13_580_TrROS] | < -1 kcal/mol | -0.928 ± 0.47 kcal/mol
SAGKNPGPVLILADGGEEGVKAVAYFPDGPLETEFPGSGDIAIVIPPGLTPSDVLKAAAVALKEAAESSAGG [r19_170_TrMRF] | -0.337 ± 0.24 kcal/mol | 0.396 ± 0.037 kcal/mol
SAGLTAKITSVTEENGTLTVTVEVTAPDGSTFTFTATFRIEPAPAPPVKVTVETDADGNVTVTVETLDSAGG [r19_172_TrROS_Hall] | > 6 kcal/mol | 5.13 ± 0.28 kcal/mol
SAGMSLKLEVPIDGHMIEVTVHPSPPRATAKYPEFDATAEATISEPGLINLTITDPKTGKPYPLDVTLPSAG [r14_656_JUSTAS] | 0.152 ± 0.1 kcal/mol | 0.621 ± 0.023 kcal/mol
SAGMTITKTEEFPKGPGSVTRTTVTLPNGKVVVEETITLEDPSVTKTVTKTIEPADGTVLETTTTTVPASAG [r5_108_JUSTAS] | -0.418 ± 0.3 kcal/mol | 0.302 ± 0.16 kcal/mol
SAGMTVEEVAAEIIASHPPSSTSVTLEVDVGPKPVRVTVEILPDPETGRPVPRVTVTDPNKNVTTEYVVSAG [r5_236_JUSTAS] | -0.632 ± 0.39 kcal/mol | -0.173 ± 0.052 kcal/mol
SAGMVKVSLEKNPNGTPVVTVDVNEEGGPPVTVTLPVDPNETLSKVSAVLKKEGYPLPAGKKISELLSSAGG [r19_263_JUSTAS] | < -1 kcal/mol | -0.72 ± 0.25 kcal/mol
SAGMVTFIDTTPGKAVVAVEDPATGTSRTIELDLDSPDGRPASLEEIKKVVEELVKEERPDLTVDVKLASAG [r5_293_JUSTAS] | < -1 kcal/mol | -0.506 ± 0.15 kcal/mol
SAGPKNAKPIGTVRIRNPNGRKINIMQWPNPIMVHIKPPDGKKREVPIRGAPMEEILDELAEDGWEVEPSAG [r5_613_TrROS] | < -1 kcal/mol | -0.489 ± 0.63 kcal/mol
SAGPKVVKIEFLEDNTAKITVEVGSKPVEVEVPVGSVFLIPGGEKIEVIEPGKAKVSPLPEVDVDPEKSAGG [r19_17_TrMRF] | < -1 kcal/mol | -0.848 ± 0.33 kcal/mol
SAGPPNMEPVETHTFPFPGKKIKIKVYRNPDGHVKIKLEDPGKKIEQSAPVPPGEPVEIPIRLPNGKPISAG [r5_878_TrROS] | < -1 kcal/mol | -0.904 ± 0.52 kcal/mol
SAGSAKELAKEIADTIADEMQDRHPGFKPTEVEVKEIEVNPENGWVKINIEMRFPNGKPIWKPEITIPSAGG [r19_53_TrROS] | -0.557 ± 0.25 kcal/mol | -0.0323 ± 0.058 kcal/mol
SAGSMTVSESTENGVRTTTVTLPSRPLTVTVTFPDGKVTATTTDPAAPEAATTTPLGTPAVETLIAELSSAG [r14_716_JUSTAS] | -0.609 ± 0.3 kcal/mol | 0.083 ± 0.051 kcal/mol
SAGSPIDLGEVEVEEKPVETDPATGLTTTETVITAPDGRPVFVKYTTKDPATGTTTVTETPVGVDPELTSAG [r5_200_JUSTAS] | < -1 kcal/mol | -0.556 ± 0.096 kcal/mol
